Numbering of substitutions follows the chain as printed.

These results are taken from patent publication US20260167728A1 (published 2026).

For assay [1], the target named is T1, cynomolgus monkey EGFR (cynomolgus monkey, UniProt A0A2K5WK39 25-645).
T1 construct: also called Cyno EGFR
Description: SPR Biacore 37 C.

Assay [2] addresses T2, human EGFR (human, UniProt P00533 25-645, limits assumed).
T2 construct: on HT-29 cells in the cytotoxicity assay; also called epidermal growth factor receptor
In words: SPR Biacore 37 C.

Assay [3] addresses T3, human CD3 (human, UniProt P07766 23-126). In words: SPR Biacore 37 C.
In assay [4] the target is T4, cynomolgus monkey CD3 (cynomolgus monkey, UniProt Q95LI5 22-117).
T4 construct: also called Cyno CD3
T4 sequence: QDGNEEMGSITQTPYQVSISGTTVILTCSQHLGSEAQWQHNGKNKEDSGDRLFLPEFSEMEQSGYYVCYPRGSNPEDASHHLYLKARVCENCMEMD
Description: SPR Biacore 37 C.

Assay [5] deals with huCD3e (human, UniProt P07766 23-126). In words: Octet primary screen, crude lysate. The method, then:
Stability and affinity of the individually expressed molecules in the form of crude lysate was evaluated by Octet. […] The binding of these anti-CD3 molecules (CD3.227, CD3.228, CD3.229 and CD3.230) to human and cynomolgus CD3 was measured by Octet and the Tₘ was measured by Differential Scanning Fluorimetry. All variants were paired with an anti-PSMA VHH.

The target in assay [6] is T5, huCD3e-mFc (human, UniProt P07766 23-126).
T5 construct: not shown: mFc, not described
Description: Pool 3 screen, R2.

For assay [7], the target named is T5, huCD3e-mFc. Description: Pool 3 screen, R3.
In assay [8] the target is T5, huCD3e-mFc. Description: Pool 3 screen.
The target of assay [9] is T3, human CD3. Description: Octet.
Assay [10] concerns the target T3, human CD3. In words: method not stated.
Assay [11] concerns the target T2, human EGFR. In words: BLI, room temperature. On the procedure: Each construct was expressed in small-scale and purified. Thermal stability was determined by Differential Scanning Fluorimetry. Melting temperature (Tₘ) determined by Differential Scanning Fluorimetry experiments described herein were performed either in duplicate or triplicate using GloMelt™ dye and QuantStudio5™. GloMelt™ dye undergoes fluorescence enhancement upon binding to hydrophobic regions of denatured proteins. Therefore, the dye can be used to detect protein unfolding or measure thermal stability. GloMelt™ dye is optimized for detection in the SYBR® Green channel of qPCR instruments. The Differential Scanning Fluorimetry experiments were performed in 96-well plates with 10 μg protein/reaction (equal to 0.5 mg/mL final protein concentration), reaction buffer, and GloMelt™ 10× dye according to manufacturer's instructions. Fluorescence of 96-well plates was read and melt curve plots were generated in the QuantStudio5™ qPCR system. Binding affinity was analyzed with bio-layer interferometry at room temperature with human EGFR as the antigen.

T3 sequence (P07766 23-126 limits assumed): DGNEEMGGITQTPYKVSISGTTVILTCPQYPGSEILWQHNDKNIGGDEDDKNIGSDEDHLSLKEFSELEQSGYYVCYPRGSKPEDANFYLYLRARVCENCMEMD
T5 sequence (P07766 23-126): as the sequence (P07766 23-126 limits assumed) above
huCD3e, sequence (P07766 23-126): as the sequence (P07766 23-126 limits assumed) above

B1: AMX-525 (bispecific antibody)
chain: ASSATPESGPGTSTEPSEGSAPGTSESATPESGPGSGPGTSESATPGTSESATPESGPGSEPATSGSETPGTSESATPESGPGTSTEPSEGSAPGSPAGSPTSTEEGTSESATPESGPGSEPATSGSETPGTSESATPESGPGSPAGSPTSTEEGSPAGSPTSTEEGTSTEPSEGSAPGTSESATPESGPGTSESATPESGPGTSESATPESGPGSEPATSGSETPGSEPATSGSETPGSPAGSPTSTEEGTSTEPSEGSAPGTSTEPSEGSAPGSEPATSGSETPGTSESATPEAGRSASHTPAGLTGPGTSESATPESDIQMTQSPSSLSASVGDRVTITCQASQDISNYLNWYQQKPGKAPKLLIYDASNLETGVPSRFSGSGSGTDFTFTISSLQPEDIATYYCQHFDHLPLAFGQGTKVEIKSESATPESGPGTSPGATPESGPGTSESATPQVQLQESGPGLVKPSETLSLTCTVSGGSVSSGDYYWTWIRQPPGKGLEWIGHIYYSGNTNYNPSLKSRVTISVDTSKNQFSLKLSSVTAADTAVYYCARDRVTGAFDIWGQGTLVTVSSGGGGSELVVTQEPSLTVSPGGTVTLTCRSSNGAVTSSNYANWVQQKPGQAPRGLIGGTNKRAPGTPARFSGSLLEGKAALTLSGVQPEDEAVYYCALWYPNLWVFGGGTKLTVLSESATPESGPGTSPGATPESGPGTSESATPEVQLVESGGGIVQPGGSLRLSCAASGFTFSTYAMNWVRQAPGKGLEWVGRIRTKRNDYATYYADSVKGRFTISRDDSKNTLYLQMNSLKTEDTAVYYCVRHENFGNSYVSWFAHWGQGTLVTVSSGTATPESGPGEAGRSASHTPAGLTGPATPESGPGTSESATPESGPGSPAGSPTSTEEGTSESATPESGPGSEPATSGSETPGTSESATPESGPGTSTEPSEGSAPGTSTEPSEGSAPGTSTEPSEGSAPGTSTEPSEGSAPGTSTEPSEGSAPGTSTEPSEGSAPGSPAGSPTSTEEGTSTEPSEGSAPGTSESATPESGPGSEPATSGSETPGTSESATPESGPGSEPATSGSETPGTSESATPESGPGTSTEPSEGSAPGTSESATPESGPGSPAGSPTSTEEGSPAGSPTSTEEGSPAGSPTSTEEGTSESATPESGPGTSTEPSEGSAPGTSESATPESGPGSEPATSGSETPGTSESATPESGPGSEPATSGSETPGTSESATPESGPGTSTEPSEGSAPGSPAGSPTSTEEGTSESATPESGPGSEPATSGSETPGTSESATPESGPGSPAGSPTSTEEGSPAGSPTSTEEGTSTEPSEGSAPGTSESATPESGPGTSESATPESGPGTSPSATPESGPGSEPATSGSETPGSEPATSGSETPGSPAGSPTSTEEGTSTEPSEGSAPGTSTEPSEGSAPGSEPATSGSETPGTSESAGEPEA
notes: Fully masked paTCE; also called AC4230; EGFR.37/CD3.318 paTCE
Take B1: the Kd is 1.05 nM in assay [1], 0.736 nM in assay [2], 57 nM in [3] and 167 nM in [4]. Besides, the off-rate constant (koff) in assay [1] is 0.001 s⁻¹; in assay [2], 0.00077 s⁻¹; in assay [3] it was 0.18 s⁻¹; in assay [4], 0.18 s⁻¹. In addition, the kon in [1] is 910000 M⁻¹ s⁻¹; in [2], 1.04e+06 M⁻¹ s⁻¹; in assay [3] it was 3.1e+06 M⁻¹ s⁻¹; in assay [4] it was 1.1e+06 M⁻¹ s⁻¹.

B2: AC3471 (CD3.23, WT) (bispecific antibody, V domains shown)
VH: EVQLLESGGGIVQPGGSLKLSCAASGFTFNTYAMNWVRQAPGKGLEWVARIRSKYNNYATYYADSVKDRFTISRDDSKNTVYLQMNNLKTEDTAVYYCVRHENFGNSYVSWFAHWGQGTLVTVSS
VL: ELVVTQEPSLTVSPGGTVTLTCRSSNGAVTSSNYANWVQQKPGQAPRGLIGGTNKRAPGTPARFSGSLLGGKAALTLSGVQPEDEAVYYCALWYPNLWVFGGGTKLTVL
notes: Pool 2 format (remarks)
In assay [5], B2 came in with a Kd of 13.5 nM.

B3: AC3768 (CD3.23 control) (scFv, V domains shown)
VH: B2 VH
VL: B2 VL
notes: Pool 3 format (remarks)
Take B3: the Kd was 8 nM in assay [6], 5.6 nM in [7], 4.67 nM in assay [8] and 4.67 nM in assay [9].

B4: AC3799 (CD3.295) (scFv, V domains shown)
VH: B2 VH with L5V, K19R, N30S, A49G, S53T, Y55R, D68G, N87S
VL: B2 VL with L69N
notes: Pool 3 format (remarks)
As for B4, the Kd came to 3.7 nM in assay [6], 3.11 nM in assay [8] and 3.11 nM in assay [9].

B5: AC3682 (CD3.251) (bispecific antibody, V domains shown)
VH: B2 VH with L5V, K19R, A49G, Y55R, Y61T, N87S
VL: B2 VL
notes: Pool 2 format (remarks)
B5 came in with a Kd in assay [5] of 32.8 nM.

B6: AC3796 (CD3.292) (scFv, V domains shown)
VH: B2 VH with L5V, K19R, N30S, A49G, S53T, Y55R, D68G, N87S
VL: B2 VL
notes: Pool 3 format (remarks)
Turning to B6, the equilibrium dissociation constant (Kd) in assay [6] was determined as 4.1 nM; in [7], 3 nM; in [8], 3.89 nM; in [9] it was 3.89 nM.

B7: AC3822 (CD3.318) (scFv, V domains shown)
VH: B2 VH with L5V, K19R, N30S, A49G, S53T, Y55R, N57D, D68G, V81L, N87S
VL: B2 VL with G70E
notes: Pool 3 format (remarks)
With B7, the results for the Kd in assay [6], in [8] and in assay [9] were 5.7 nM, 5.38 nM and 5.38 nM, respectively.

B8: AC2909 (EGFR.61/CD3.23 paTCE) (bispecific antibody)
scFv 1: EIVLTQSPGTLSLSPGERATLSCQASQDISNYLNWYQQKPGQAPRLLIYDASNLETGIPDRFSGSGSGTDFTLTISRLEPEDFAVYYCQHFDHLPLAFGQGTKVEIKGATPPETGAETESPGETTGGSAESEPPGEGQVQLQESGPGLVKPSETLSLTCTVSGGSVSSGDYYWTWIRQPPGKGLEWIGHIYYSGNTNYNPSLKSRVTISVDTSKNQFSLKLSSVTAADTAVYYCARDRVTGAFDIWGQGTLVTVSS
scFv 2: ELVVTQEPSLTVSPGGTVTLTCRSSNGAVTSSNYANWVQQKPGQAPRGLIGGTNKRAPGTPARFSGSLLGGKAALTLSGVQPEDEAVYYCALWYPNLWVFGGGTKLTVLGATPPETGAETESPGETTGGSAESEPPGEGEVQLLESGGGIVQPGGSLKLSCAASGFTFNTYAMNWVRQAPGKGLEWVARIRSKYNNYATYYADSVKDRFTISRDDSKNTVYLQMNNLKTEDTAVYYCVRHENFGNSYVSWFAHWGQGTLVTVSS
notes: EGFR library format (remarks)
As for B8, the values for the dissociation constant Kd in assay [10] and in assay [11] were roughly 203 nM and 2.4 nM, respectively.

B9: AC2885 (EGFR.37/CD3.23 paTCE) (bispecific antibody)
scFv 1: DIQMTQSPSSLSASVGDRVTITCQASQDISNYLNWYQQKPGKAPKLLIYDASNLETGVPSRFSGSGSGTDFTFTISSLQPEDIATYYCQHFDHLPLAFGQGTKVEIKGATPPETGAETESPGETTGGSAESEPPGEGQVQLQESGPGLVKPSETLSLTCTVSGGSVSSGDYYWTWIRQPPGKGLEWIGHIYYSGNTNYNPSLKSRVTISVDTSKNQFSLKLSSVTAADTAVYYCARDRVTGAFDIWGQGTLVTVSS
scFv 2: B8 scFv 2
notes: EGFR library format (remarks)
As for B9, the Kd in [10] came to 203 nM; in [11], 2.3 nM; in [8], 15.4 nM.

B10: AC2897 (EGFR.49/CD3.23 paTCE) (bispecific antibody)
scFv 1: B9 scFv 1 with F73L, I83F
scFv 2: B8 scFv 2
notes: EGFR library format (remarks)
Consider B10, for which the Kd in [10] was roughly 203 nM; in assay [11] it was 7.2 nM.

B11: AC2921 (EGFR.73/CD3.23 paTCE) (bispecific antibody)
scFv 1: B8 scFv 1 with G9A, D60A, R77S
scFv 2: B8 scFv 2
notes: EGFR library format (remarks)
With B11, the Kd in [10] was roughly 203 nM; in assay [11] it was 2.45 nM.

B12: AMX-525 (uTCE) (bispecific antibody)
chain: GTSESATPESDIQMTQSPSSLSASVGDRVTITCQASQDISNYLNWYQQKPGKAPKLLIYDASNLETGVPSRFSGSGSGTDFTFTISSLQPEDIATYYCQHFDHLPLAFGQGTKVEIKSESATPESGPGTSPGATPESGPGTSESATPQVQLQESGPGLVKPSETLSLTCTVSGGSVSSGDYYWTWIRQPPGKGLEWIGHIYYSGNTNYNPSLKSRVTISVDTSKNQFSLKLSSVTAADTAVYYCARDRVTGAFDIWGQGTLVTVSSGGGGSELVVTQEPSLTVSPGGTVTLTCRSSNGAVTSSNYANWVQQKPGQAPRGLIGGTNKRAPGTPARFSGSLLEGKAALTLSGVQPEDEAVYYCALWYPNLWVFGGGTKLTVLSESATPESGPGTSPGATPESGPGTSESATPEVQLVESGGGIVQPGGSLRLSCAASGFTFSTYAMNWVRQAPGKGLEWVGRIRTKRNDYATYYADSVKGRFTISRDDSKNTLYLQMNSLKTEDTAVYYCVRHENFGNSYVSWFAHWGQGTLVTVSSGTATPESGPG
notes: Fully unmasked metabolite; also called unmasked AMX-525; not shown: remnant of cleaved RSR-3213
B12: the Kd is 0.042 nM in assay [1], 0.034 nM in assay [2], 29.2 nM in assay [3] and 28 nM in [4]. Moreover, the off-rate constant (koff) in assay [1] worked out at 0.00017 s⁻¹; in assay [2], 0.00023 s⁻¹; in assay [3] it was 0.128 s⁻¹; in assay [4] it was 0.14 s⁻¹. In addition, the kon in assay [1] is 4.1e+06 M⁻¹ s⁻¹; in assay [2], 6.45e+06 M⁻¹ s⁻¹; in [3], 4.4e+06 M⁻¹ s⁻¹; in assay [4], 5e+06 M⁻¹ s⁻¹.
